# Source: patent US20250289893A1 (OXFORD UNIVERSITY INNOVATION, published 2025)
# T1: Cynomolgus monkey CD1a protein (Cynomolgus monkey)
# T1 chain: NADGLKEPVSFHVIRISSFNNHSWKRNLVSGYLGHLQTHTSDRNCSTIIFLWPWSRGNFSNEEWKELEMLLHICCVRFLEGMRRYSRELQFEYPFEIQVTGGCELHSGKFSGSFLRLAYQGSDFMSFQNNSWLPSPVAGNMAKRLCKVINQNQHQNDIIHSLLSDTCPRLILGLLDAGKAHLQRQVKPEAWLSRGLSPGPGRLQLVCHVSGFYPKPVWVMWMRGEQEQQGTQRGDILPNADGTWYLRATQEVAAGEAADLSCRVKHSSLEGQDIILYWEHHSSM
# Experiments:
# [1] = target: T2, human CD1a protein (pool B) (human, UniProt P06126 18-295, limits assumed); assay: ELISA, 0.1 µg/ml antibody
# T2 construct: Recombinant protein of the ELISA (coated) and the Biacore T200 titration; whole entry named; also called human CD1a pool B; full length CD1a
# Procedure: (§1) CD1a-specific antibodies were identified by ELISA. […] 20 μl/well of peroxidase-conjugated goat anti-species IgG Fc-specific F(ab′)2 fragment (Jackson ImmunoResearch), diluted 1:5000 in block buffer was added and incubated at room temperature for 1 hour, followed by washing with wash buffer.
# (§2) The antibodies were titrated through a dilution series and compared to a control rabbit IgG antibody.
# [2] = target: T3, human CD1a expressed on cells (human, UniProt P06126 17-327; P61769 21-119); assay: flow cytometry, HEK-293 cells, 31.6 µg/ml antibody
# T3 construct: also called HEK - CD1a; C1R - CD1a
# Procedure: (§3) Binding to proteins expressed on HEK, C1R and MOLT4 cell lines was assessed. […] The C1R-CD1a, C1R-empty vector and MOLT4 cell lines were washed in 1×PBS on the day required. All cell lines were counted and resuspended in 1×PBS and then stained for 30 minutes at 37° C. using the DiI or DiO cellular stains (Invitrogen). Cells were washed with flow cytometry buffer (1% bovine serum albumin, 2 mM EDTA and 0.1% sodium azide in PBS) before mixing 2 DiI-stained and DiO-stained populations together. The cells (20 μl/well) were then added to dilutions of antibody sample (B cell culture supernatant, TAP supernatant, clone supernatant, purified antibody solution) (20 μl/well) and incubated for 1 hour at 4° C. in a flow cytometry assay plate, before being washed with flow cytometry buffer. 10 μl/well of Alexafluor647-conjugated goat anti-species IgG Fc-specific F(ab′)2 fragment (Jackson ImmunoResearch), diluted 1:2500 in flow cytometry buffer, was added and incubated at 4° C. for 30 minutes, followed by washing with wash buffer. The fluorescence intensity was then measured on an iQue screener PLUS.
# (§4) HEK-293 cells were transiently transfected with human CD1a, CD1b, CD1c or CD1d and co-transfected with human β2M.
# [3] = target: T4, human CD1b expressed on HEK-293 cells (human, UniProt P29016 18-333; P61769 21-119); assay: flow cytometry, HEK-293 cells, 31.6 µg/ml antibody
# T4 construct: also called HEK - CD1b
# Procedure: as §3, §4
# [4] = target: T5, human CD1d expressed on HEK-293 cells (human, UniProt P15813 20-335; P61769 21-119); assay: flow cytometry, HEK-293 cells, 31.6 µg/ml antibody
# T5 construct: also called HEK - CD1d
# Procedure: as §3, §4
# [5] = target: T6, human CD1c expressed on HEK-293 cells (human, UniProt P29017 18-333; P61769 21-119); assay: flow cytometry, HEK-293 cells, 31.6 µg/ml antibody
# T6 construct: also called HEK - CD1c
# Procedure: as §3, §4
# [6] = target: T2, human CD1a protein (pool B); assay: ELISA, 0.0316 µg/ml antibody
# Procedure: as §1, §2
# [7] = target: T3, human CD1a expressed on cells; assay: flow cytometry, C1R cells, 100 µg/ml antibody
# Procedure: as §3
# (§5) Binding was quantified as fold change in fluorescence intensity geomean over background assessed by flow cytometry.
# [8] = target: T7, chimeric CD1a pool B protein [human CD1a lipid binding domain, mouse CD1d Ig domain] (human; mouse, UniProt P06126 18-201; P11609 205-297, limits assumed); assay: ELISA, 0.316 µg/ml antibody
# Procedure: as §1
# (§6) The antibodies were titrated through a dilution series and compared to a control rabbit IgG antibody. […] Data shown for purified antibodies.
# [9] = target: T7, chimeric CD1a pool B protein [human …; assay: ELISA, 100 µg/ml antibody
# Procedure: as §1, §6
# [10] = target: T3, human CD1a expressed on cells; assay: flow cytometry, MOLT4 cells, 0.316 µg/ml antibody
# Procedure: (§7) CD1a-specific antibodies were identified by flow cytometry. Binding to proteins expressed on HEK, C1R and MOLT4 cell lines was assessed. […] The C1R-CD1a, C1R-empty vector and MOLT4 cell lines were washed in 1×PBS on the day required. All cell lines were counted and resuspended in 1×PBS and then stained for 30 minutes at 37° C. using the DiI or DiO cellular stains (Invitrogen). Cells were washed with flow cytometry buffer (1% bovine serum albumin, 2 mM EDTA and 0.1% sodium azide in PBS) before mixing 2 DiI-stained and DiO-stained populations together. The cells (20 μl/well) were then added to dilutions of antibody sample (B cell culture supernatant, TAP supernatant, clone supernatant, purified antibody solution) (20 μl/well) and incubated for 1 hour at 4° C. in a flow cytometry assay plate, before being washed with flow cytometry buffer. 10 μl/well of Alexafluor647-conjugated goat anti-species IgG Fc-specific F(ab′)2 fragment (Jackson ImmunoResearch), diluted 1:2500 in flow cytometry buffer, was added and incubated at 4° C. for 30 minutes, followed by washing with wash buffer. The fluorescence intensity was then measured on an iQue screener PLUS.
# as §5
# [11] = target: T3, human CD1a expressed on cells; assay: flow cytometry, C1R cells, 10 µg/ml antibody
# Procedure: as §3, §5
# [12] = target: Chinese variant CD1a protein (human) (UniProt P06126); assay: ELISA, 1 µg/ml antibody
# [13] = target: T7, chimeric CD1a pool B protein [human …; assay: ELISA, 31.6 µg/ml antibody
# Procedure: as §1, §6
# [14] = target: Cynomolgus monkey CD1a expressed on HEK-293 cells (Cynomolgus monkey, UniProt A0A2K5VQ68 17-326); assay: flow cytometry, HEK-293 cells, 0.01 µg/ml antibody
# Procedure: as §3, §5
# [15] = target: T3, human CD1a expressed on cells; assay: flow cytometry, HEK-293 cells, 10 µg/ml antibody
# Procedure: as §3, §4
# [16] = target: T4, human CD1b expressed on HEK-293 cells; assay: flow cytometry, HEK-293 cells, 10 µg/ml antibody
# Procedure: as §3, §4
# [17] = target: T5, human CD1d expressed on HEK-293 cells; assay: flow cytometry, HEK-293 cells, 10 µg/ml antibody
# Procedure: as §3, §4
# [18] = target: T6, human CD1c expressed on HEK-293 cells; assay: flow cytometry, HEK-293 cells, 10 µg/ml antibody
# Procedure: as §3, §4
# [19] = target: T3, human CD1a expressed on cells; assay: flow cytometry, C1R cells, 0.316 µg/ml antibody
# Procedure: as §3, §5
# [20] = target: T3, human CD1a expressed on cells; assay: flow cytometry, MOLT4 cells, 1 µg/ml antibody
# Procedure: as §7, §5
# [21] = target: T1, Cynomolgus monkey CD1a protein; assay: ELISA, 1 µg/ml antibody
# [22] = target: T3, human CD1a expressed on cells; assay: flow cytometry, HEK-293 cells, 0.0316 µg/ml antibody
# Procedure: as §3, §4
# [23] = target: T4, human CD1b expressed on HEK-293 cells; assay: as above
# Procedure: as §3, §4
# [24] = target: T5, human CD1d expressed on HEK-293 cells; assay: as above
# Procedure: as §3, §4
# [25] = target: T6, human CD1c expressed on HEK-293 cells; assay: as above
# Procedure: as §3, §4
# T7 sequence (P06126 other isoform, or with tags, fused parts or gaps mutant limits assumed): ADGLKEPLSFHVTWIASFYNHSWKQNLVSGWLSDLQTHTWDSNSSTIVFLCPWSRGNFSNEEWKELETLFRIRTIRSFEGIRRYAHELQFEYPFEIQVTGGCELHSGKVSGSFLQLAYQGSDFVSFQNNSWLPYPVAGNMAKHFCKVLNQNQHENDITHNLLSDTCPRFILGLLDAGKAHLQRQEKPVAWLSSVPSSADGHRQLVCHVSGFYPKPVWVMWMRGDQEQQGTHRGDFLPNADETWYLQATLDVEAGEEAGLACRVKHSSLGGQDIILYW
# T2 sequence (P06126 18-295 limits assumed): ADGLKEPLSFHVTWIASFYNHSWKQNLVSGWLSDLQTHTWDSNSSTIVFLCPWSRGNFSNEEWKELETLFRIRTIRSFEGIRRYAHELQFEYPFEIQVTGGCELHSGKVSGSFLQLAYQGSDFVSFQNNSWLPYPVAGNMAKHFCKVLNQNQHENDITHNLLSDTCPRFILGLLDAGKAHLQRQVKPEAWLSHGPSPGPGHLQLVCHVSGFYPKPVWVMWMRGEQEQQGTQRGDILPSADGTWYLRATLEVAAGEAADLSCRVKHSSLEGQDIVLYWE
# Chain of Cynomolgus monkey CD1a expressed on HEK-293 cells (A0A2K5VQ68 entry or part of it): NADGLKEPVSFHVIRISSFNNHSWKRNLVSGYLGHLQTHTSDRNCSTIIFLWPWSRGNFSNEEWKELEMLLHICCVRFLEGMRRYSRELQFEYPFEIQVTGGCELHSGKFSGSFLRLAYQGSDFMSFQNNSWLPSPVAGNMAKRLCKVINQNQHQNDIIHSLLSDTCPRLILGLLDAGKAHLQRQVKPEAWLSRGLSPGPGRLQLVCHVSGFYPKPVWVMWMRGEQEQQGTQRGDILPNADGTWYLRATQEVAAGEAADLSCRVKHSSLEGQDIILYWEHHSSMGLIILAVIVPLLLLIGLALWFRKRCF
# Chain of Chinese variant CD1a protein (human) (P06126 18-295, change not shown): as the sequence (P06126 18-295 limits assumed) above
binder,measurement,setting,value
"116 (VR12117) (antibody, V domains shown, also called OX116) VH: QSVEESGGRLVTPGTPLTLTCTVSGFSLSNYAMSWVRQAPGKGLEWIGIIYTTGFTYYASWVKGRFTISKTSTTVDLKITSPTTEDTATYFCARGLATYVSPPTRLDLWGQGTLVTVSS VL: AQVLTQTPSPVSAAVGGTVTINCQASQSIYNSKNLAWYQQKPGQPPKLLIYSASTLASGVPSRFKGSGSGTQFTLTISDLECDDAATYYCQGEFSCSSVDCATFGGGTEVVVK",Optical Density (OD),[1],1.07 OD
same,Fluorescence Intensity Geomean (normalized to background),[2],5.6 fold over background
same,Fluorescence Intensity Geomean (normalized to background),[3],1 fold over background
same,Fluorescence Intensity Geomean (normalized to background),[4],1 fold over background
same,Fluorescence Intensity Geomean (normalized to background),[5],1 fold over background
same,Optical Density (OD),[6],0.95 OD
same,Fluorescence Intensity Geomean (normalized to background),[7],11.9 fold over background
same,Optical Density (OD),[8],1.32 OD
same,Optical Density (OD),[9],1.37 OD
same,Fluorescence Intensity Geomean (normalized to background),[10],29.6 fold over background
same,Fluorescence Intensity Geomean (normalized to background),[11],16.9 fold over background
same,Optical Density (OD),[12],1.51 OD
same,Optical Density (OD),[13],1.35 OD
same,Fluorescence Intensity Geomean (normalized to background),[14],1 fold over background
same,Fluorescence Intensity Geomean (normalized to background),[15],12.6 fold over background
same,Fluorescence Intensity Geomean (normalized to background),[16],1 fold over background
same,Fluorescence Intensity Geomean (normalized to background),[17],1.1 fold over background
same,Fluorescence Intensity Geomean (normalized to background),[18],1.1 fold over background
same,Fluorescence Intensity Geomean (normalized to background),[19],27.5 fold over background
same,Fluorescence Intensity Geomean (normalized to background),[20],30.6 fold over background
same,Optical Density (OD),[21],0.14 OD
same,Fluorescence Intensity Geomean (normalized to background),[22],15.7 fold over background
same,Fluorescence Intensity Geomean (normalized to background),[23],1 fold over background
same,Fluorescence Intensity Geomean (normalized to background),[24],1 fold over background
same,Fluorescence Intensity Geomean (normalized to background),[25],1 fold over background
